According to article PMC3517414, “Complex Interplay between the Lipin 1 and the Hepatocyte Nuclear Factor 4 α (HNF4α) Pathways to Regulate Liver Lipid Metabolism” (PLoS ONE, 2012):

Biological target: T1, hepatocyte nuclear factor 4α (HNF4α) (human (endogenous in HepG2), UniProt P41235 1-474)
T1 sequence (looked up): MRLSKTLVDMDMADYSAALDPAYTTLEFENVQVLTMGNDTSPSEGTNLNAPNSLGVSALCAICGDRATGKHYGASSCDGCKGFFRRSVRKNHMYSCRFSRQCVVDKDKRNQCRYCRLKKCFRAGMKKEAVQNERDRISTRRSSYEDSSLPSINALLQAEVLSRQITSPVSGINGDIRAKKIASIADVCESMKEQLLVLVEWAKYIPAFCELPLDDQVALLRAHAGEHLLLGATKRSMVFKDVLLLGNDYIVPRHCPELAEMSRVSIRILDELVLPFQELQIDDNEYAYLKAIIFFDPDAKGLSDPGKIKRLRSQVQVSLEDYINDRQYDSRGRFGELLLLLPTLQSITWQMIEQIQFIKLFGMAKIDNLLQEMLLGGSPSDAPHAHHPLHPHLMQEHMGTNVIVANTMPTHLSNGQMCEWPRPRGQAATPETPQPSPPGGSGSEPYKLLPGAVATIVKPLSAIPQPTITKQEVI
Experiment: cell-based or functional assay

B1: lipin 1β (924 amino acid form of mouse lipin 1), HA-tagged (natural protein, UniProt Q91ZP3 1-924, looked up)
chain: MNYVGQLAGQVFVTVKELYKGLNPATLSGCIDIIVIRQPNGSLQCSPFHVRFGKMGVLRSREKVVDIEINGESVDLHMKLGDNGEAFFVQETDNDQEIIPMYLATSPILSEGAARMESQLKRNSVDRIRCLDPTTAAQGLPPSDTPSTGSLGKKRRKRRRKAQLDNLKRDDNVNSSEDEDMFPIEMSSDEDTAPMDGSRTLPNDVPPFQDDIPKENFPSISTHPQSASYPSSDREWSPSPSSLVDCQRTPPHLAEGVLSSSCPLQSCHFHASESPSGSRPSTPKSDSELVSKSADRLTPKNNLEMLWLWGELPQAAKSSSPHKMKESSPLGSRKTPDKMNFQAIHSESSDTFSDQSPTMARGLLIHQSKAQTEMQFVNEEDLESLGAAAPPSPVAEELKAPYPNTAQSSSKTDSPSRKKDKRSRHLGADGVYLDDLTDMDPEVAALYFPKNGDPGGLPKQASDNGARSANQSPQSVGGSGIDSGVESTSDSLRDLPSIAISLCGGLSDHREITKDAFLEQAVSYQQFADNPAIIDDPNLVVKVGNKYYNWTTAAPLLLAMQAFQKPLPKATVESIMRDKMPKKGGRWWFSWRGRNATIKEESKPEQCLTGKGHNTGEQPAQLGLATRIKHESSSSDEEHAAAKPSGSSHLSLLSNVSYKKTLRLTSEQLKSLKLKNGPNDVVFSVTTQYQGTCRCEGTIYLWNWDDKVIISDIDGTITRSDTLGHILPTLGKDWTHQGIAKLYHKVSQNGYKFLYCSARAIGMADMTRGYLHWVNERGTVLPQGPLLLSPSSLFSALHREVIEKKPEKFKVQCLTDIKNLFFPNTEPFYAAFGNRPADVYSYKQVGVSLNRIFTVNPKGELVQEHAKTNISSYVRLCEVVDHVFPLLKRSHSCDFPCSDTFSNFTFWREPLPPFENQDMHSASA
- activity of a Gal4-HNF4α fusion on the UAS-TKLuc luciferase reporter in HepG2 cells with lipin 1 overexpression: > 3 fold
